Source: the domain aggregation screens of Martell et al. (2025)

Test: soluble fraction after stress (log2 fold change); higher = more stays soluble; pooled small domains, quantitative proteomics
Conditions: stress: pH 4
Summary of the method: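 High-throughput quantitative proteomics was run on pooled custom libraries of small protein domains following pH 4 stress. Fold changes are on a log2 scale; higher values mean more of a domain remained soluble. The fold change in soluble amount is taken as a measure of aggregation propensity.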

Row | Sequence | soluble fraction (log2)
1 | HMAIDLPVTTVNGKDYYYYDVQPKETIFSLSQRLGISREEIISYNPGVDGGLKAYTRLYFPVESGL | -0.0117
2 | HMAIDLSLIPGNLLRELHGAVEDGDMYRIRELIRSISAVDEKVGKELLLLAERYDYERLLELVND | -1.03
3 | HMAIDWVQIKAEYISGTMSASKLAEKHGVSVYAIRKRSGKERWQELRRQNQSETANKIAEKI | -0.0638
4 | HMAIDYYQTLINLGYKLQDRGDYWQTSAIHRGGDNPTALQIYKNTGVWKDYVSGGGFKPFKALVEKSD | -0.35
5 | HMAIELTPRQLDIIELVRKHAPITGEQIAELLGVTRPSIRSDLGLLVMLGYIDAKPKVGYFAGPRM | -0.893
6 | HMAIGSRLKVTTDATNLNIRSTPSTEGDIVGKAAHHEIVTLVEKTDDSWWKIKTNDGEEGYAYAQYLSPV | 0.0608
7 | HMAIIQSNNIFKSQKEIVDEILVELDIPKDKWNFFHMLISSGYKDEFDTNRIYEIIQTNYNMMDR | -0.693
8 | HMAILDTALDVLSMNLKDNYTSFQILRQAAIAGKIAFNLTEKNPLGGVIEVELTGDDLETWIEAATW | -0.697
9 | HMAIMISINAKGEVAWNDQIISLDDLAQRFNAAGQQAQKPTVQLRADKESRYDMVAQVMSRASEAGLSDIA | -0.966
10 | HMAIRLIKASREFNVGISTIVEFLEKKGHAIDSDPNSKIPDELYQLIEKEFQTEGSVKKAAKQI | -0.335
11 | HMAITLEVAKKHLEMWLEAESEVAINQSYTIGGKSFTRANLAEIRKQIEYWSNKVAELENLA | -0.247
12 | HMAITYETKVISGVNLRSAPSTSASVYQLIPKGENIHVVQKVNDYWLKVQTKDGKTGYISASSKYTNYIG | 0.0502
13 | HMAIWAVFYKNEPFNLKSFNSLTSYPGPKYKKTSFSNPGHALNLAKKLNLTFGTEDFQVVKLTQGTIV | 0.00875
14 | HMAKIEVENLEETILENLKANNGFMPYNDKTSPEEIYEVFHVSKKHFKNSLGGLMKKGLIFQNEKGTKL | -0.444
15 | HMAKITERVMGSAALRDYDPNYLPDEVLKALDGYPPFDGYVYKDGILYARVKIGDTFFIIPPI | -1.84
16 | HMAKKDVESTLGGRLRVARVRAGLTQVELARMLGMNSVSLSNVEGGRRGLSMKQLVRVAKILEVPVAYLLG | 0.151
17 | HMAKMPSIIIMKDGVIRTSELEQIERDENWLNEEMKKQHIDNPEDVFLAEFWDGKVNFILQDGKIK | -0.78
18 | HMAKNDSGLNNHTFNTIRDALQKALTDGPQEAKKLTENLPFPADKIITVIRYLADHDEHFSLEDGIISLT | -0.0785
19 | HMAKNIEVPNLVGSTISVARNDLKQLGLHVIVRDSVWSEDKKIDTILEQFPEPGKKLKPEGVVQVVVSI | 0.0706
20 | HMAKNSVLTIELWNSTAFKWRKDTEPYSESMSVDFNRSVRLTDGISIMFSKFGFVPGIQYLIPLQT | -0.331
21 | HMAKQQTTTTAHVVTTGETLYSIAQKNGISVEELKKSNNITSDKLRPGQTLHITKVSKTSSTAK | 0.129
22 | HMAKRPRFEDVIKEINTEIQKRKGKWNLTILSWMDFDDVAQVIRIHIYRKWHLYDPSKPLGPWLNR | 0.322
23 | HMAKSETAKIKATPYGWLRVRDTPSLNGAEIARVNSGDEYKVLEKETGWIKIKVSDTVEGWVSDAYIELS | 0.16
24 | HMAKSKYETHVLPNLDKIIKWAKAGATAKEIAANLHIAYSTFRKYLDEGQEGDERYAALSAAFAQA | 0.22
25 | HMALDLNEDEKLLVELIEKAGGTAGLGELKEASGLSGKKWDKTTKNLSKEGLIKVEKNESGLWVHLT | -0.423
26 | HMALDLPVKRVKGKEYYYYKVKKGESLYGISKHLGLPLDSIVKSNPSVADGVRKGDMLLFPLEEYT | 0.115
27 | HMALKQADFDFIRQMIQQRAAIVLDDNKHYFVESRLGPVVEETGSKSLDQLIDQLRSSSNSLLQQKVTEAI | -0.324
28 | HMALLSDEERIATVFAARLGGYSHQEIYKLLQDRFGPSLPAAYSEKSVLTDLQTALSQVPSL | -1.41

Row | Sequence | soluble fraction (log2)
29 | HMALPEHIEPFLRGLGQALAEGDSYEDVQERLLRAYPYLDSTEFQTALARVIFISDLWGRLN | -1.02
30 | HMALPPPELRGATGEAVTALRPAGIALIQGKRYDVLAEGGEWIAAGAAVRVRDIRNGHLIVSDA | 0.166
31 | HMALRFMAYGRINGTNVHFRTGASASTASLGRYSRGTEFGVYDKIGGWYRVRLLSTGQEGYVYSRYLTLTG | -0.0807
32 | HMALSGTVQNFAGGIMILIFRPFKTGDYIEALGYFGKVSEVNIVSTKLRTFDNKTIILPNGALSNGNIQNY | -0.775
33 | HMALSSQQIKDMQSWYGTKADGIWGSKSTTAAGGRDAGAAYSLYSSNKGRYSSYTDYMSYGGG | -0.000306
34 | HMALSTRERMSFVLEVLKEKEFIPFVDLFSPEEGRAGVVVTFLALMELMKDSLIEIVQTKNFGEIHVRARL | -1.07
35 | HMALTQEQLGQRLQDARKSVALTQQEVAEDLGLSRESLAQIEAGSRSVNSLEIVRLARLYGRSLSSILLE | -0.299
36 | HMALYSEQVSEIEKALMSLPPKYQLVMLLLYAEDLKYEQIAEILDEPIGTVKTKIHRARKILKERF | -0.0112
37 | HMAMDSGELEAIVDRLISEHPDDWAALTAGDDRERKKKSGFFVGEVMKATRGQADGRAVIELLASRSA | -0.605
38 | HMAMDYTVVHSDRRTIAIQIQRDGRVVVRAPYAATAEDIRRVVDSHRDWVEKTVRRQQEQLAAS | 0.238
39 | HMAMNITQRHQEILAVIKQEKHITVSEISKLLGVSEVTIRKDFNYLEEKNLIYRHHGGASLNN | -0.0786
40 | HMAMPQPVARALHRLGQDISAARRMRRLSQEDLAQRIGTSLSTVRRMEDGYPGTALHTFLRALHML | -0.4
41 | HMAMSDFDALSNRISTLSQGRASAVRMKDGIVSLVLDIGGLSAEERKAMTAAIEGEGRGYPSVTQVRILET | 0.0485
42 | HMANAGKFDSDMGEKINFPGNRVSLTPSELEAARELAAIMGDRFFSQLIPTTSKVTVTEMLQSLK | -0.849
43 | HMANGTVKWFNTTKGFGFIAPETGGKDVFVHISAVERSGLTGLADDQKVTFDVEAGRDGRESAVNLAL | -0.613
44 | HMANKTVPNVSGKTVAEARAIIENQSLQVGEEKEEYSDSVAEGYIIRTNPTAGSQKKEQSKIDLVVSKG | -0.211
45 | HMANLDSLIKKVGQYAKDKQSISVDGIKKDLSIDKDMVKEALAELLKIGVVDKPDEAGQYKVIM | 0.0802
46 | HMANPMFAEIKKVQKQLNEMGYQAGPADGLWGNKTENAVKLLLSDNNLKWDGTFDQNEIKIIEEIFLSND | -0.257
47 | HMANPRLEYFLSNITPDWNEFSPELKNQLLIENADPYKLEQYILQVSPDMYIEEQNAPGTVRQMAGDITG | -1.54
48 | HMANSANARKSLVSKLIAGGKIASQSDLVKALKKQGIVVTQGTASRDLEDIGAIRVRNSEGEIVYALT | 0.108
49 | HMANSDEEVLNKISTKAPTFNELINKIKEFDDTKEINDIWLDVYRYYITDEEYKEIAKKVITGLTYTNQ | -0.544
50 | HMANSLLVTAQAGGQKLFNFLKRSLHAENNEIHRWIRTGQVRINKKRTKAFDIVHENDEIRIPPFALNR | -0.053
51 | HMANSREIPKLAGIEQEEAVKQLLDLDLKPVIEEITDDDTDAGDVVRTDPAAGEHVAVDTEITVFISIG | -0.192
52 | HMANVQLAKNLKTLRKKYNYTQQDVSTFLNITRQAYSHYEQALREPDLNTLVHLSRFYQVTLDELI | -1.6
53 | HMANYHDIAADLRSKINHGFYEEEKKLPKQSELAADYQTSRVTIQKALNILQMEGIIYGKKGTGTFIRDSY | 0.0346
54 | HMANYTVNAYNNGGTGGSVNMRSGPSTNDGIVVRVPHGATVTGTKSGTWSYMTYNTYTGYMMSVYLDEQS | -0.0556
55 | HMAPAPYLVKVTANKLNIRSGPGTNYKIQGAITDKGTYTIVDTQGRWGKLKSGAGWIYLNYTKK | 0.22
